Changes are numbered by the printed parent chain. In names and notes the source's numbering stands.
B1: AppA Q63E full-length (natural protein, Rhodobacter sphaeroides, UniProt Q53119 1-450, looked up)
chain: MQHDLEADVTMTGSDLVSCCYRSLAAPDLTLRDLLDIVETSQAHNARAQLTGALFYSQGVFFEWLEGRPAAVAEVMTHIQRDRRHSNVEILAEEPIAKRRFAGWHMQLSCSEADMRSLGLAESRQIVTVGRSLVADNTNIFSFDRIAAVRRFLSDVCAARTLAPDTPVEADTFALYALTEAQAGRSGRAKAVARLSDLLSTDPLGRLTEVEELLRAHAPTAADFARLFEACAERLTRALAEDRISRMQVTLAYSALQMALRRIHHLPDPQKSVGAVLVAGVPGHKPILEAALAAEMLRAVGWSTSVVHPESVAALAARLKTSRTSTLVVAPSLLEGTEQEADTLRFVSALRARTDLPGLSILVGGRLAQLPPSKLKDSGADAGFAHLALLPAALARVACPANADCCSMRACRMPASQCCDKRINPEFLLANVMPSVLTRISSRQDRRRSA
B2: AppA Q63L full-length (natural protein, Rhodobacter sphaeroides, UniProt Q53119 1-450, looked up)
chain: B1 chain with E63L

Biological target: the molecule itself
Assay: SEC

Row | Protein | stoichiometry N
1 | B1 | 2
2 | B2 | 2

Source: publication PMC3127458 (Biochemistry, 2010)
